Assay results from publication PMC2192030.

Target: Xenopus Mad1 (Xenopus (endogenous in Xenopus egg extract))
Assay: co-IP

Substance: Xenopus Mad2 (natural protein)
- percent of Mad2 removed by immunodepletion of Mad1: 20 to 40%
